# T1: YghU (Escherichia coli, UniProt Q46845)
# T1 sequence (Q46845 1-288): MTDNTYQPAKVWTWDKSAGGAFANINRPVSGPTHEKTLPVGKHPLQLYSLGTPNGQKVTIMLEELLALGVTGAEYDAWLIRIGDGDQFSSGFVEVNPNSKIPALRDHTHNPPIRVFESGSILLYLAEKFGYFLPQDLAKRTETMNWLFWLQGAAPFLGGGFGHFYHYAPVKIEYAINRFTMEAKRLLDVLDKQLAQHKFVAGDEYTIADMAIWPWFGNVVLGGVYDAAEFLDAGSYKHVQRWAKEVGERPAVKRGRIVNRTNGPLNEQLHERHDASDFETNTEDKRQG
# Columns and labels:
# [1] = biological target: T1, YghU; test: intrinsic protein fluorescence titration, single-site fit; format: binding
# [2] = substrate: CC(C)(OO)c1ccccc1; test: purified protein; format: biochemical, Escherichia coli; conditions: GSH co-substrate, 100 mM KH2PO4, pH 7.0, 25 °C
# [3] = substrate: CCCCC[C@@H](/C=C/C=C\C/C=C\C/C=C\CCCC(=O)O)OO; test: purified protein; format: biochemical, Escherichia coli; conditions: 3 mM GSH, 100 mM KH2PO4, pH 7.0, 0.005% BSA, 25 °C
# [4] = substrate: CCCCC[C@@H](/C=C/C=C\CCCCCCCC(=O)O)OO; test: purified protein; format: biochemical, Escherichia coli; conditions: GSH co-substrate, 100 mM KH2PO4, pH 7.0, 25 °C
# [5] = biological target: the molecule itself; test: SEC
Molecule,Kd [1],Km [2],kcat [2],kcat/Km [2],Km [3],kcat [3],kcat/Km [3],Km [4],kcat [4],kcat/Km [4],stoichiometry N [5]
NCCCCNCCCNC(=O)CNC(=O)[C@H](CS)NC(=O)CC[C@H](N)C(=O)O [GspSH],1 ± 0.1 mM,–,–,–,–,–,–,–,–,–,–
"YghU (enzyme, Escherichia coli K-12, UniProt Q46845 1-288, looked up) MTDNTYQPAKVWTWDKSAGGAFANINRPVSGPTHEKTLPVGKHPLQLYSLGTPNGQKVTIMLEELLALGVTGAEYDAWLIRIGDGDQFSSGFVEVNPNSKIPALRDHTHNPPIRVFESGSILLYLAEKFGYFLPQDLAKRTETMNWLFWLQGAAPFLGGGFGHFYHYAPVKIEYAINRFTMEAKRLLDVLDKQLAQHKFVAGDEYTIADMAIWPWFGNVVLGGVYDAAEFLDAGSYKHVQRWAKEVGERPAVKRGRIVNRTNGPLNEQLHERHDASDFETNTEDKRQG",–,16 ± 2 µM,0.05 ± 0.001 s⁻¹,3500 ± 400 M⁻¹ s⁻¹,28 ± 4 µM,0.096 ± 0.004 s⁻¹,3400 ± 1500 M⁻¹ s⁻¹,130 ± 30 µM,0.19 ± 0.02 s⁻¹,1500 ± 400 M⁻¹ s⁻¹,2
